Data as given in PMC7858072.

Biological target: MBP-FhtR (faecalis heme transport regulator fused to the maltose binding protein) (Enterococcus faecalis OG1RF)
Assay: SEC; 40 uM apo- or holo- (hemin-complexed) MBP-FhtR in 100 ul loaded on Superdex 200 Increase 10/300 GL; 20 mM HEPES (pH 7), 300 mM NaCl; read at OD280 and OD410

stoichiometry N: 2
Substance: MBP-FhtR (faecalis heme transport regulator fused to the maltose binding protein) (natural protein)
